Measured values taken from article PMC6093860.
Like-named read-outs stand apart in the source and are kept apart here.

What was measured:
[1] = target: human complement component 9 (C9), wild type (human); assay: cryo-EM structure; polyC9 formed from purified human C9 at 1.1-1.5 mg mL^-1 in 10 mM HEPES pH 7.5, 50 mM NaCl with amphipol A8-35 (0.015-0.02 mg mL^-1), 37 °C overnight; ring of C9 subunits
[2] = target: human complement component 9 (C9), wild type (human); assay: as above; remark: listed apart in the source

- stoichiometry N [1]: 22
- stoichiometry N [2]: 21
Substance: human complement component 9 (C9), wild type (natural protein)
